Data as given in paper PMC4423210, “Ubiquitination of the Dishevelled DIX domain blocks its head-to-tail polymerization” (Nature Communications, 2015).

Key:
[1] = target: the molecule itself; assay: crystal structure; hDvl2 DIX-Y27D, 40% PEG400, 0.1 M Tris pH 8.5, 0.2 M LiSO4, 19 °C; helical filament in the crystal
[2] = target: the molecule itself; assay: SEC-MALS; highest loading concentration (235 μM DIX, ∼160 μM DIX54-Ub or DIX58-Ub; reduced ∼10x during SEC); Superdex-75 HR10/300, 20 mM Tris pH 7.4, 200 mM NaCl, 0.01% NaN3; self-association, apparent molecularity
[3] = target: the molecule itself; assay: SEC-MALS; loading concentration 50 μM (reduced ∼10x during SEC); Superdex-75 HR10/300, 20 mM Tris pH 7.4, 200 mM NaCl, 0.01% NaN3; self-association, apparent molecularity
[4] = target: the molecule itself; assay: SEC-MALS; loading concentration 10 μM (reduced ∼10x during SEC); Superdex-75 HR10/300, 20 mM Tris pH 7.4, 200 mM NaCl, 0.01% NaN3; self-association, apparent molecularity

B1: hDvl2 DIX domain bearing the polymerization-deficient mutation M4 (Y27D) (domain or fragment, human)
chain: GETKVIYHLDEEETPDLVKIPVPAERITLGDFKSVLQRPAGAKYFFKSMDQDFGVVKEEISDDNARLPCFNGRVVSWLVSSDNPQPEMAPPVHEPR
notes: DIX domain of human Dishevelled-2 (hDvl2) with Y27D; Crystallised at 50 mg/ml; forms a helical head-to-tail filament in the crystal; also called hDvl2 DIX-Y27D; source: E. coli BL21-CodonPlus(DE3)-RIL, purified (Ni-NTA, TEV, gel filtration, anion exchange); not shown: 6xHis, N-terminal, cleaved
[1]
  binding result: binds

B2: DIX domain of human Dvl2 (hDvl2), unmodified (domain or fragment, UniProt O14641 11-93, looked up)
chain: VGETKVIYHLDEEETPYLVKIPVPAERITLGDFKSVLQRPAGAKYFFKSMDQDFGVVKEEISDDNARLPCFNGRVVSWLVSSD
notes: DIX domain of human Dishevelled-2 (hDvl2); Codon-optimised synthetic gene in pCDF-PylT; PDB 4WIP holds the Y27D mutant of the hDvl2 DIX domain; also called unmodified DIX; hDvl2 DIX domain; not shown: His6, N-terminal, cleaved
[2]
  stoichiometry N: > 84 monomers
[3]
  stoichiometry N: 3
[4]
  stoichiometry N: 2
